Starred links: 1 amine or outer side, 2 acyl side, 3 side chain; linkers in the order of their positions; H or OH if unused. Positions of bridges follow the written chain, without caps; N, C: chain ends. Non-standard residues stand in square brackets, D forms with d. Primed or numbered codes have the meaning given here. ξ: configuration not given here. PyrS2(3) = (S)-3-amino-1-((pent-4-en-1-yloxy)carbonyl)pyrrolidine-3-carboxylic acid, stapling residue, C=CCCCOC(=O)N1CC[C@@](N[*:1])(C(=O)[*:2])C1; PyrS2″ = (S)-3-amino-1-((pent-4-en-1-yloxy)carbonyl)pyrrolidine-3-carboxylic acid (stapling residue), C=CCCCOC(=O)N1CC[C@@](N[*:1])(C(=O)[*:2])C1; B5(4) = 2,2-bis(4-pentenyl)glycine = 2-amino-2-(pent-4-en-1-yl)hept-6-enoic acid (stitching residue), C=CCCCC(CCCC=C)(N[*:1])C(=O)[*:2]; B5(20) = 2-amino-2-(pent-4-en-1-yl)hept-6-enoic acid = bis(4-pentenyl)glycine, stitching residue, C=CCCCC(CCCC=C)(N[*:1])C(=O)[*:2]; TfeGA = (S)-2-amino-3-((carboxymethyl)(2,2,2-trifluoroethyl)amino)propanoic acid, O=C([C@H](CN(CC(=O)[*:3])CC(F)(F)F)N[*:1])[*:2]; PyrS2 = (S)-3-amino-1-((pent-4-en-1-yloxy)carbonyl)pyrrolidine-3-carboxylic acid, C=CCCCOC(=O)N1CC[C@@](N[*:1])(C(=O)[*:2])C1; B5(3) = 2,2-bis(4-pentenyl)glycine (stitching residue), C=CCCCC(CCCC=C)(N[*:1])C(=O)[*:2]; B5″ = 2,2-bis(4-pentenyl)glycine, stitching residue, C=CCCCC(CCCC=C)(N[*:1])C(=O)[*:2]; Phe(2-Cl) = N[C@@H](Cc1ccccc1Cl)C(=O)O; Bta = N[C@@H](Cc1csc2ccccc12)C(=O)O; αAllylPro = C=CC[C@@]1(C(=O)O)CCCN1; tBuAla = CC(C)(C)C[C@H](N)C(=O)O; 3Thi = N[C@@H](Cc1ccsc1)C(=O)O; Cha = N[C@@H](CC1CCCCC1)C(=O)O; S8 = C=CCCCCCC[C@](C)(N)C(=O)O; ξβ3hD = NC(CC(=O)O)CC(=O)O; hSer = N[C@@H](CCO)C(=O)O; Aib = CC(C)(N)C(=O)O
T1: B-cat-Halo (NanoBRET construct expressed in HEK293 cells) (UniProt P35222 1-781)
T1 sequence (looked up): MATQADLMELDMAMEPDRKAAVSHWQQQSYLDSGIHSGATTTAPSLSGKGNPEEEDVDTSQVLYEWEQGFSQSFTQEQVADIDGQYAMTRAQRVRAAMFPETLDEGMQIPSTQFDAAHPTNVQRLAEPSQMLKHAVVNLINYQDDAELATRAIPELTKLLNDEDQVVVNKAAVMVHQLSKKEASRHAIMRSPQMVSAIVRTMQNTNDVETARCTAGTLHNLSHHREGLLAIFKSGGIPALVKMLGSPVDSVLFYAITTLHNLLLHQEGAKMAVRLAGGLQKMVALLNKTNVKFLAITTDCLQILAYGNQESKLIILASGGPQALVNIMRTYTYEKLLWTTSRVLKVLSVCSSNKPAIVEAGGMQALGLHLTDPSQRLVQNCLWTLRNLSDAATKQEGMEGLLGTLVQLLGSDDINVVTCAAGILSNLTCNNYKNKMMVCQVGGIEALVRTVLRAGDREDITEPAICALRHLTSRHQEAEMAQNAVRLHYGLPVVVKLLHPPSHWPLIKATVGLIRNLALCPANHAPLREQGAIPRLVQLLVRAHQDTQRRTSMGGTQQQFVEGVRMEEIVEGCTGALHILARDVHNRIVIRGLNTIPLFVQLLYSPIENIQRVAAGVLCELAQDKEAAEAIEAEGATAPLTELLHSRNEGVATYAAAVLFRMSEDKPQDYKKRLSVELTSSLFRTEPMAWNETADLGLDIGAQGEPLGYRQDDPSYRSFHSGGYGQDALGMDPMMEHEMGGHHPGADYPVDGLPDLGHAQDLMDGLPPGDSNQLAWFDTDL

T2: B-cat-Halo (beta-catenin HaloTag construct expressed in HEK293 cells) (UniProt P35222 1-781)
T2 sequence (looked up): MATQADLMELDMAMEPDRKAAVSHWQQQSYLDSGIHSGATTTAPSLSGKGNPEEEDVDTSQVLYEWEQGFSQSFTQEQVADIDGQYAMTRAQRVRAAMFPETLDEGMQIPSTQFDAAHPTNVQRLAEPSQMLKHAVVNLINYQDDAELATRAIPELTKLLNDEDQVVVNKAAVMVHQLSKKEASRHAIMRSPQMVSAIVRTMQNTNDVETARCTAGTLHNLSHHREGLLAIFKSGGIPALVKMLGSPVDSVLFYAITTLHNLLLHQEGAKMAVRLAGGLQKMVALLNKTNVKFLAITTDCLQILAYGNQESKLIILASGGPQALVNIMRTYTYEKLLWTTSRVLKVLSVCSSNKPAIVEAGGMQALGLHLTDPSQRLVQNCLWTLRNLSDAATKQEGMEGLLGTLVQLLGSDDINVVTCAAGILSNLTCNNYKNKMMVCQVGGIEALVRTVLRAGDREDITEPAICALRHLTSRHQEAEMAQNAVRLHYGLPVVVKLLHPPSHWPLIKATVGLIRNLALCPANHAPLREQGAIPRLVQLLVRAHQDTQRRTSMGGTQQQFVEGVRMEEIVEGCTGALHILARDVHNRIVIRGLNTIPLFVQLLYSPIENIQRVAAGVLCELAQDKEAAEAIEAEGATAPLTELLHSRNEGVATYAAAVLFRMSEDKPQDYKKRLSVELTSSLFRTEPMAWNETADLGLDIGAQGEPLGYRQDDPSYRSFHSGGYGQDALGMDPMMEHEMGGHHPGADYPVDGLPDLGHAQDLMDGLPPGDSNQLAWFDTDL

T3: beta-catenin in TCF/LEF luciferase reporter cells (Homo sapiens (Human), UniProt P35222 1-781)
T3 sequence: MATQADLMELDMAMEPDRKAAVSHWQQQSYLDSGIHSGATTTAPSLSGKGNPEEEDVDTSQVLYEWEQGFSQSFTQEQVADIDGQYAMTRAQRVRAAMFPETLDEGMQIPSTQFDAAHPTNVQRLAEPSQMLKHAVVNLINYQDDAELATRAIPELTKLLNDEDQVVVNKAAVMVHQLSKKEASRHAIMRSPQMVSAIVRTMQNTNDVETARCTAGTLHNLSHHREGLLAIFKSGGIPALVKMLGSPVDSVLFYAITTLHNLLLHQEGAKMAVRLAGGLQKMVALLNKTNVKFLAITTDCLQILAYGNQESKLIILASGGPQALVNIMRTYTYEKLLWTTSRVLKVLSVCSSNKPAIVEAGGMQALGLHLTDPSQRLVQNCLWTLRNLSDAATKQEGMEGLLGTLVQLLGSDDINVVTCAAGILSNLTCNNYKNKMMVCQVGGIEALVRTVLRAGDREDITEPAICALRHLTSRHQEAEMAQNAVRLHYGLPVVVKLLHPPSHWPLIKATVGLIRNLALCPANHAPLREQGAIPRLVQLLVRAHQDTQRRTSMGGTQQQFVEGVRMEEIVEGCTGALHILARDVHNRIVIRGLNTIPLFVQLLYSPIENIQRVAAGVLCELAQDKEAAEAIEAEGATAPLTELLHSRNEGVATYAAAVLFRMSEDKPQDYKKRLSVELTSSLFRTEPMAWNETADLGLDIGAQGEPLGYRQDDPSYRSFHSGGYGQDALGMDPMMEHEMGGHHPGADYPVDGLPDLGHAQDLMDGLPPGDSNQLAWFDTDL


These binders were tested against T1, B-cat-Halo (NanoBRET construct …) (assay: cell-based or functional assay).

Row | NanoBRET Abs IC50 | Binder
1 | 15.4 µM | Ac-[αAllylPro]DI[B5(20)]DEAAFN[S8][3Thi][Bta]Q-NH2 (staple 1-4, 4-11; also: later-eluting HPLC peak of staple isomers) [I-521]
2 | 28.8 µM | Ac-[αAllylPro]DA[B5(20)]DEAAFN[S8][3Thi][Bta]Q-NH2 (staple 1-4, 4-11; also: later-eluting HPLC peak of staple isomers) [I-519]

These binders were tested against T2, B-cat-Halo (beta-catenin HaloTag …) (assay: cell-based or functional assay).

Row | Binder | NanoBRET Abs IC50
3 | Ac-[αAllylPro]D[tBuAla][B5″]DDAAFL[S8][3Thi][Bta]Q-NH2 (staple 1-4, 4-11) [I-1188] | 7.2 µM
4 | Ac-[αAllylPro]D[tBuAla][B5(4)]DTAAFL[PyrS2″][3Thi][Bta]Q-NH2 (staple 1-4, 4-11) [I-1167] | 11.7 µM
5 | Ac-[αAllylPro]D[tBuAla][B5(4)]DTAAFT[PyrS2″][3Thi][Bta]Q-NH2 (staple 1-4, 4-11) [I-1166] | 14.6 µM
6 | Ac-[αAllylPro]D[Cha][B5(4)]DTAAFT[PyrS2″][3Thi][Bta]Q-NH2 (staple 1-4, 4-11) [I-1173] | 17.2 µM

Further lines, results first:

Row | NanoBRET Abs IC50 | Binder
7 | 4.3 µM | Ac-[αAllylPro]D[tBuAla][B5(4)]DD[Aib]AFL[PyrS2″][3Thi][Bta]Q-NH2 (staple 1-4, 4-11) [I-1177]
8 | 13.5 µM | Ac-[αAllylPro]D[tBuAla][B5(4)]DTAAFT[PyrS2″][3Thi][Bta]S-NH2 (staple 1-4, 4-11) [I-1170]
9 | 16.2 µM | Ac-[αAllylPro]D[tBuAla][B5″]DDAAFL[S8][3Thi][Bta]H-NH2 (staple 1-4, 4-11) [I-1195]
10 | > 20 µM | Ac-[αAllylPro][ξβ3hD][tBuAla][B5(4)]D[TfeGA]AAFN[PyrS2″][3Thi][Bta]Q-NH2 (staple 1-4, 4-11) [I-1161]

Each binder was assayed against T3, beta-catenin in TCF/LEF luciferase … (assay: cell-based or functional assay).

Row | TCF Reporter Assay Abs IC50 (uM), peptide + ST-Protein | TCF Reporter Assay Abs IC50 (uM), peptide only | Binder
11 | 0.2 µM | 5 µM | Ac-[αAllylPro]D[tBuAla][B5(3)]D[TfeGA]AAFL[PyrS2][3Thi][Bta]Q-NH2 (staple 1-4, 4-11) [I-849]
12 | 0.2 µM | 5 µM | Ac-[αAllylPro]D[tBuAla][B5(3)]D[TfeGA]AAF[hSer][PyrS2″][Phe(2-Cl)][Bta][hSer]-NH2 (staple 1-4, 4-11) [I-993]
13 | 0.2 µM | 5 µM | Ac-[αAllylPro]D[tBuAla][B5(3)]D[TfeGA]AAFT[PyrS2″][Phe(2-Cl)][Bta]Q-NH2 (staple 1-4, 4-11) [I-922]
14 | 0.3 µM | 7 µM | Ac-[αAllylPro]D[tBuAla][B5″]D[TfeGA]AAFN[PyrS2(3)][3Thi][Bta]Q-NH2 (staple 1-4, 4-11) [I-762]

Source: patent US20240116985A1 (published 2024)
